Results as given in article PMC9482650, “Quantitative fragmentomics allow affinity mapping of interactomes” (Nature Communications, 2022).

What follows are binders tested against T1, ARHGAP21, Q5T5U3 (assay: holdup assay). Details: plain residues with an end cap or a label only (N-terminal biotin on a linker: ado-ado).
T1 sequence (Q5T5U3 45-169, limits assumed, looked up): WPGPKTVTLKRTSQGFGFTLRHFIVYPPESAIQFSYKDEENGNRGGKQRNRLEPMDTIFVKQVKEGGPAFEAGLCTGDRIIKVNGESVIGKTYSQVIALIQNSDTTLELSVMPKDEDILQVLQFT
Design: key: below the threshold = too weak to quantify, mostly under pKd 3.1 to 4

Binder	pKd
SRSVVESDEL [MYPN, Q86TC9]	3.51
IDESKKEWLI [CNTNAP2, Q9UHC6]	below the threshold

The binders below were run against MAST2, Q6P0Q8 (assay: holdup assay). Details: plain residues with an end cap or a label only (N-terminal biotin on a linker: ado-ado).
Chain of MAST2, Q6P0Q8 (Q6P0Q8 1099-1202): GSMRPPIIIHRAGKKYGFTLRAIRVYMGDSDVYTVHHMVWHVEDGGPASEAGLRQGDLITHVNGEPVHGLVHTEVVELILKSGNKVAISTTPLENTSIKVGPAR
Design: key: below the threshold = too weak to quantify, mostly under pKd 3.1 to 4

Binder	pKd
SRSVVESDEL [MYPN, Q86TC9]	4.46
IDESKKEWLI [CNTNAP2, Q9UHC6]	below the threshold

Each binder was assayed against T2, PARD3B_1, Q8TEW8 (assay: holdup assay). Details: plain residues with an end cap or a label only (N-terminal biotin on a linker: ado-ado).
T2 sequence (Q8TEW8 196-299, limits assumed, looked up): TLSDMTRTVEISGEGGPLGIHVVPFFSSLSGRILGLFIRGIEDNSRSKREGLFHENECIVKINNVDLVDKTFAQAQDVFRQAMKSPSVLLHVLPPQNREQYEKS
Design: key: below the threshold = too weak to quantify, mostly under pKd 3.1 to 4

Binder	pKd
SRSVVESDEL [MYPN, Q86TC9]	below the threshold
IDESKKEWLI [CNTNAP2, Q9UHC6]	4.63

The binders below were run against NHERF4_1, Q86UT5-2 (assay: holdup assay). Details: plain residues with an end cap or a label only (N-terminal biotin on a linker: ado-ado).
Chain of NHERF4_1, Q86UT5-2 (Q86UT5 other isoform, or with tags, fused parts or gaps): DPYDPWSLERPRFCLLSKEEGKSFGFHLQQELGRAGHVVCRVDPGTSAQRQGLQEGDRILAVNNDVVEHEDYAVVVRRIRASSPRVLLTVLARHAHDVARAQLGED
Design: key: below the threshold = too weak to quantify, mostly under pKd 3.1 to 4

Binder	pKd
SRSVVESDEL [MYPN, Q86TC9]	4.29
IDESKKEWLI [CNTNAP2, Q9UHC6]	below the threshold

Each binder was assayed against SCRIB_1, Q14160 (assay: holdup assay). Details: plain residues with an end cap or a label only (N-terminal biotin on a linker: ado-ado).
Chain of SCRIB_1, Q14160 (Q14160 718-814): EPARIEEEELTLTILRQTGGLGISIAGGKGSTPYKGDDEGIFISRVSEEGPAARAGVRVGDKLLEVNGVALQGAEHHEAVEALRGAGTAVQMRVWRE
Design: key: below the threshold = too weak to quantify, mostly under pKd 3.1 to 4

Binder	pKd
SRSVVESDEL [MYPN, Q86TC9]	3.49
IDESKKEWLI [CNTNAP2, Q9UHC6]	below the threshold

What follows are binders tested against T3, LNX2_3, Q8N448 (assay: holdup assay). Details: plain residues with an end cap or a label only (N-terminal biotin on a linker: ado-ado).
T3 sequence (Q8N448 463-564, limits assumed, looked up): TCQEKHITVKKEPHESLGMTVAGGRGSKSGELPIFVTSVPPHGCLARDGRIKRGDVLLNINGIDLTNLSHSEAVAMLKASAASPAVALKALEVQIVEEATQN
Design: key: below the threshold = too weak to quantify, mostly under pKd 3.1 to 4

Binder	pKd
SRSVVESDEL [MYPN, Q86TC9]	below the threshold
IDESKKEWLI [CNTNAP2, Q9UHC6]	below the threshold

Each binder was assayed against DLG4_1, P78352 (assay: holdup assay). Details: plain residues with an end cap or a label only (N-terminal biotin on a linker: ado-ado).
Chain of DLG4_1, P78352 (P78352 62-152): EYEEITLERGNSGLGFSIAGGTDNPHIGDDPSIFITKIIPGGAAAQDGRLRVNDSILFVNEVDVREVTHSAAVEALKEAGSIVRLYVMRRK
Design: key: below the threshold = too weak to quantify, mostly under pKd 3.1 to 4

Binder	pKd
SRSVVESDEL [MYPN, Q86TC9]	below the threshold
IDESKKEWLI [CNTNAP2, Q9UHC6]	below the threshold

These binders were tested against MAGI1_1, Q96QZ7 (assay: holdup assay). Details: plain residues with an end cap or a label only (N-terminal biotin on a linker: ado-ado).
Chain of MAGI1_1, Q96QZ7 (Q96QZ7 1-106): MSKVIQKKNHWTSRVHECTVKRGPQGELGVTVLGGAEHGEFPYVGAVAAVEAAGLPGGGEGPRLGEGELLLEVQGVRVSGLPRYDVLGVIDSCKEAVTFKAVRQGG
Design: key: below the threshold = too weak to quantify, mostly under pKd 3.1 to 4

Binder	pKd
SRSVVESDEL [MYPN, Q86TC9]	3.53
IDESKKEWLI [CNTNAP2, Q9UHC6]	below the threshold

Each binder was assayed against GIPC2, Q8TF65 (assay: holdup assay). Details: plain residues with an end cap or a label only (N-terminal biotin on a linker: ado-ado).
Chain of GIPC2, Q8TF65 (Q8TF65 112-203): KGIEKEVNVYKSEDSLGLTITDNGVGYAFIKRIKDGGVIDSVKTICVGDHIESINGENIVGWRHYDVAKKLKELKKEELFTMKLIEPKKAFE
Design: key: below the threshold = too weak to quantify, mostly under pKd 3.1 to 4

Binder	pKd
SRSVVESDEL [MYPN, Q86TC9]	below the threshold
IDESKKEWLI [CNTNAP2, Q9UHC6]	below the threshold

What follows are binders tested against T4, CARD11, Q9BXL7 (assay: holdup assay). Details: plain residues with an end cap or a label only (N-terminal biotin on a linker: ado-ado).
T4 sequence (Q9BXL7 662-765, limits assumed, looked up): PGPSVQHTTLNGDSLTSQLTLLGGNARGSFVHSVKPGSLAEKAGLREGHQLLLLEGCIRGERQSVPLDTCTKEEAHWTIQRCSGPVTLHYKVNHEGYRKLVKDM
Design: key: below the threshold = too weak to quantify, mostly under pKd 3.1 to 4

Binder	pKd
SRSVVESDEL [MYPN, Q86TC9]	below the threshold
IDESKKEWLI [CNTNAP2, Q9UHC6]	below the threshold

The binders below were run against T5, RADIL, Q96JH8 (assay: holdup assay). Details: plain residues with an end cap or a label only (N-terminal biotin on a linker: ado-ado).
T5 sequence (Q96JH8 971-1071, limits assumed, looked up): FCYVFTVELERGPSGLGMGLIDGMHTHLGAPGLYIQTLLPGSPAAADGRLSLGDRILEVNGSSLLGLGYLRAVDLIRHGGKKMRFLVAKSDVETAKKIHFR
Design: key: below the threshold = too weak to quantify, mostly under pKd 3.1 to 4

Binder	pKd
SRSVVESDEL [MYPN, Q86TC9]	below the threshold
IDESKKEWLI [CNTNAP2, Q9UHC6]	3.76

These binders were tested against LIMK2, P53671 (assay: holdup assay). Details: plain residues with an end cap or a label only (N-terminal biotin on a linker: ado-ado).
Chain of LIMK2, P53671 (P53671 143-248): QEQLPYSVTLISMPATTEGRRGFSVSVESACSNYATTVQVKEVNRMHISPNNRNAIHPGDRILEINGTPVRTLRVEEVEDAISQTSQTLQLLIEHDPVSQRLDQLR
Design: key: below the threshold = too weak to quantify, mostly under pKd 3.1 to 4

Binder	pKd
SRSVVESDEL [MYPN, Q86TC9]	below the threshold
IDESKKEWLI [CNTNAP2, Q9UHC6]	below the threshold

Each binder was assayed against PTPN3, P26045 (assay: holdup assay). Details: plain residues with an end cap or a label only (N-terminal biotin on a linker: ado-ado).
Chain of PTPN3, P26045 (P26045 505-587): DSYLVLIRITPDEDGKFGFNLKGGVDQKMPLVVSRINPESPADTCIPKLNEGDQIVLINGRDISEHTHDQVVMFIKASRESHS
Design: key: below the threshold = too weak to quantify, mostly under pKd 3.1 to 4

Binder	pKd
SRSVVESDEL [MYPN, Q86TC9]	3.99
IDESKKEWLI [CNTNAP2, Q9UHC6]	4.07

These binders were tested against FRMPD3, Q5JV73 (assay: holdup assay). Details: plain residues with an end cap or a label only (N-terminal biotin on a linker: ado-ado).
Chain of FRMPD3, Q5JV73 (Q5JV73 12-100): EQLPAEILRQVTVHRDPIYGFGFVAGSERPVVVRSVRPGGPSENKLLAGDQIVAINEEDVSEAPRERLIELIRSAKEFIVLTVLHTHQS
Design: key: below the threshold = too weak to quantify, mostly under pKd 3.1 to 4

Binder	pKd
SRSVVESDEL [MYPN, Q86TC9]	below the threshold
IDESKKEWLI [CNTNAP2, Q9UHC6]	below the threshold

The binders below were run against GRASP, Q7Z6J2 (assay: holdup assay). Details: plain residues with an end cap or a label only (N-terminal biotin on a linker: ado-ado).
Chain of GRASP, Q7Z6J2 (Q7Z6J2 96-193): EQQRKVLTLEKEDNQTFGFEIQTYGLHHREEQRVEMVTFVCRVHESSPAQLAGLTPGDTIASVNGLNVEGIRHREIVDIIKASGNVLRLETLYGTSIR
Design: key: below the threshold = too weak to quantify, mostly under pKd 3.1 to 4

Binder	pKd
SRSVVESDEL [MYPN, Q86TC9]	4.14
IDESKKEWLI [CNTNAP2, Q9UHC6]	below the threshold

These binders were tested against T6, MPP2, Q14168 (assay: holdup assay). Details: plain residues with an end cap or a label only (N-terminal biotin on a linker: ado-ado).
T6 sequence (Q14168 180-250, limits assumed, looked up): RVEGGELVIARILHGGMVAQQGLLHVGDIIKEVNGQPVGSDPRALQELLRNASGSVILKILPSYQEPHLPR
Design: key: below the threshold = too weak to quantify, mostly under pKd 3.1 to 4

Binder	pKd
SRSVVESDEL [MYPN, Q86TC9]	below the threshold
IDESKKEWLI [CNTNAP2, Q9UHC6]	4.78

What follows are binders tested against T7, PDZRN3_1, Q9UPQ7 (assay: holdup assay). Details: plain residues with an end cap or a label only (N-terminal biotin on a linker: ado-ado).
T7 sequence (Q9UPQ7 244-349, limits assumed, looked up): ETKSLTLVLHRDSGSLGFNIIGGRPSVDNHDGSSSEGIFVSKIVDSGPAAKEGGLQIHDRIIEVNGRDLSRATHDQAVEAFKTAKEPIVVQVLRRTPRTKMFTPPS
Design: key: below the threshold = too weak to quantify, mostly under pKd 3.1 to 4

Binder	pKd
SRSVVESDEL [MYPN, Q86TC9]	below the threshold
IDESKKEWLI [CNTNAP2, Q9UHC6]	below the threshold

The binders below were run against T8, LIN7A, O14910 (assay: holdup assay). Details: plain residues with an end cap or a label only (N-terminal biotin on a linker: ado-ado).
T8 sequence (O14910 103-200, limits assumed, looked up): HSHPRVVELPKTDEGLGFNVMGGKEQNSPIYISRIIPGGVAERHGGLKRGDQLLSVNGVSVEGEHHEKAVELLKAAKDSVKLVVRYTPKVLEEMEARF
Design: key: below the threshold = too weak to quantify, mostly under pKd 3.1 to 4

Binder	pKd
SRSVVESDEL [MYPN, Q86TC9]	below the threshold
IDESKKEWLI [CNTNAP2, Q9UHC6]	3.72

The binders below were run against Inadl_3, Q8NI35 (assay: holdup assay). Details: plain residues with an end cap or a label only (N-terminal biotin on a linker: ado-ado).
Chain of Inadl_3, Q8NI35 (Q8NI35 359-469): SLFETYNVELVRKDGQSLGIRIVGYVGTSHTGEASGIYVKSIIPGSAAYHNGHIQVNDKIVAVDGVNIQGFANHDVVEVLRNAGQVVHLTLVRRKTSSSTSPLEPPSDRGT
Design: key: below the threshold = too weak to quantify, mostly under pKd 3.1 to 4

Binder	pKd
SRSVVESDEL [MYPN, Q86TC9]	below the threshold
IDESKKEWLI [CNTNAP2, Q9UHC6]	5.46

The binders below were run against MAGI2_5, Q86UL8 (assay: holdup assay). Details: plain residues with an end cap or a label only (N-terminal biotin on a linker: ado-ado).
Chain of MAGI2_5, Q86UL8 (Q86UL8 915-1017): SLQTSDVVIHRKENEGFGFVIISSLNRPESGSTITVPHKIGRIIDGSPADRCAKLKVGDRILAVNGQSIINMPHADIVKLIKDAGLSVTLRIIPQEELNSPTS
Design: key: below the threshold = too weak to quantify, mostly under pKd 3.1 to 4

Binder	pKd
SRSVVESDEL [MYPN, Q86TC9]	3.95
IDESKKEWLI [CNTNAP2, Q9UHC6]	below the threshold

These binders were tested against ARHGEF12, Q9NZN5-2 (assay: holdup assay). Details: plain residues with an end cap or a label only (N-terminal biotin on a linker: ado-ado).
Chain of ARHGEF12, Q9NZN5-2 (Q9NZN5 other isoform, or with tags, fused parts or gaps): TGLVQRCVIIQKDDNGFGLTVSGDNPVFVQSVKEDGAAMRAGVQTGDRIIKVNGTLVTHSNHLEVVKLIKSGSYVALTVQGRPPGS
Design: key: below the threshold = too weak to quantify, mostly under pKd 3.1 to 4

Binder	pKd
SRSVVESDEL [MYPN, Q86TC9]	3.58
IDESKKEWLI [CNTNAP2, Q9UHC6]	below the threshold

Each binder was assayed against DLG2_2, Q15700 (assay: holdup assay). Details: plain residues with an end cap or a label only (N-terminal biotin on a linker: ado-ado).
Chain of DLG2_2, Q15700 (Q15700 189-283): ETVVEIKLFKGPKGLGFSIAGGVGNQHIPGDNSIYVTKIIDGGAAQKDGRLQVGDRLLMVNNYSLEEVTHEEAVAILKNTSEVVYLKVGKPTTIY
Design: key: below the threshold = too weak to quantify, mostly under pKd 3.1 to 4

Binder	pKd
SRSVVESDEL [MYPN, Q86TC9]	below the threshold
IDESKKEWLI [CNTNAP2, Q9UHC6]	below the threshold

What follows are binders tested against MAGI2_6, Q86UL8 (assay: holdup assay). Details: plain residues with an end cap or a label only (N-terminal biotin on a linker: ado-ado).
Chain of MAGI2_6, Q86UL8 (Q86UL8 1141-1229): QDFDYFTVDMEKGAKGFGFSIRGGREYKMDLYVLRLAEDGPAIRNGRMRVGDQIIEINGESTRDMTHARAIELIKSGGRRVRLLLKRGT
Design: key: below the threshold = too weak to quantify, mostly under pKd 3.1 to 4

Binder	pKd
SRSVVESDEL [MYPN, Q86TC9]	below the threshold
IDESKKEWLI [CNTNAP2, Q9UHC6]	below the threshold

Each binder was assayed against SNX27, Q96L92 (assay: holdup assay). Details: plain residues with an end cap or a label only (N-terminal biotin on a linker: ado-ado).
Design: key: below the threshold = too weak to quantify, mostly under pKd 3.1 to 4

Binder	pKd
SRSVVESDEL [MYPN, Q86TC9]	4.17
IDESKKEWLI [CNTNAP2, Q9UHC6]	below the threshold

These binders were tested against T9, FRMPD1, Q5SYB0 (assay: holdup assay). Details: plain residues with an end cap or a label only (N-terminal biotin on a linker: ado-ado).
T9 sequence (Q5SYB0 52-145, limits assumed, looked up): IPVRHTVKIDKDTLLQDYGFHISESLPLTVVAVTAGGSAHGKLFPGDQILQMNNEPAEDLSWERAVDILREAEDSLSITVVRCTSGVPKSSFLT
Design: key: below the threshold = too weak to quantify, mostly under pKd 3.1 to 4

Binder	pKd
SRSVVESDEL [MYPN, Q86TC9]	below the threshold
IDESKKEWLI [CNTNAP2, Q9UHC6]	below the threshold

What follows are binders tested against LDB3, O75112 (assay: holdup assay). Details: plain residues with an end cap or a label only (N-terminal biotin on a linker: ado-ado).
Chain of LDB3, O75112 (O75112 1-94): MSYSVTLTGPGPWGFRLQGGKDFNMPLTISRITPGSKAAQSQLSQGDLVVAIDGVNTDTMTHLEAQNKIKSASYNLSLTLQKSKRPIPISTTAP
Design: key: below the threshold = too weak to quantify, mostly under pKd 3.1 to 4

Binder	pKd
SRSVVESDEL [MYPN, Q86TC9]	5.06
IDESKKEWLI [CNTNAP2, Q9UHC6]	below the threshold

Each binder was assayed against GRIP2_6, Q9C0E4 (assay: holdup assay). Details: plain residues with an end cap or a label only (N-terminal biotin on a linker: ado-ado).
Chain of GRIP2_6, Q9C0E4 (Q9C0E4 648-740): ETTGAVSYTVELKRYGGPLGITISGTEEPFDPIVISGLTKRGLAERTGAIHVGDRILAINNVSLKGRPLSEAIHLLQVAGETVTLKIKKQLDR
Design: key: below the threshold = too weak to quantify, mostly under pKd 3.1 to 4

Binder	pKd
SRSVVESDEL [MYPN, Q86TC9]	3.95
IDESKKEWLI [CNTNAP2, Q9UHC6]	3.57

The binders below were run against Inadl_10, Q8NI35 (assay: holdup assay). Details: plain residues with an end cap or a label only (N-terminal biotin on a linker: ado-ado).
Chain of Inadl_10, Q8NI35 (Q8NI35 1673-1763): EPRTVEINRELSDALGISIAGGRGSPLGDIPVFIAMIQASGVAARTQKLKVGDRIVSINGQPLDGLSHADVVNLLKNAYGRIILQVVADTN
Design: key: below the threshold = too weak to quantify, mostly under pKd 3.1 to 4

Binder	pKd
SRSVVESDEL [MYPN, Q86TC9]	below the threshold
IDESKKEWLI [CNTNAP2, Q9UHC6]	below the threshold

These binders were tested against Inadl_8, Q8NI35 (assay: holdup assay). Details: plain residues with an end cap or a label only (N-terminal biotin on a linker: ado-ado).
Chain of Inadl_8, Q8NI35 (Q8NI35 1425-1530): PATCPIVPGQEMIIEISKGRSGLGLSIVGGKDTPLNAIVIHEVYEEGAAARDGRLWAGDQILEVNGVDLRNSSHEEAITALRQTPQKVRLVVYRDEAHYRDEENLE
Design: key: below the threshold = too weak to quantify, mostly under pKd 3.1 to 4

Binder	pKd
SRSVVESDEL [MYPN, Q86TC9]	below the threshold
IDESKKEWLI [CNTNAP2, Q9UHC6]	below the threshold
